The text below walks through data of the supplement of paper PMC10567573.

The chains are these.
B1: MCOLN1 (parent)
chain: EEEDLRRRLKYFFMSPCDKFRAKG
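Also: lentivirally expressed fusions sorted by FACS into six bins by GFP to DsRed ratio, PSI derived from sequencing read proportions per bin multiplied by bin number.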

This data set covers variants of B1. Kind of data set: protein stability index of a GFP-peptide fusion (GPS, HEK-293T) (PSI 1-6); higher = more stable. Conditions: c terminus: a fixed tail appended.
Turning to EEEDLRRRLKYFFMSDCDKFRAKG [P16D], the protein stability index was found to be 3.12.

As for EEEDLRRRLKYFFMSYCDKFRAKG [P16Y], the protein stability index came out at 2.39. Next, EEEDLRRRLKYFFMSFCDKFRAKG [P16F]: 2.2; EEEDLRRRLKYFFMSMCDKFRAKG [P16M]: 1.78. With EEEDLRRRLKYFFMSNCDKFRAKG [P16N], the protein stability index is 2.11. With EEEDLRRRLKYFFMSHCDKFRAKG [P16H], the protein stability index came to 2.09. EEEDLRRRLKYFFMSICDKFRAKG [P16I]: the protein stability index worked out at 1.95.

On to EEEDLRRRLKYFFMSGCDKFRAKG [P16G], for which the protein stability index stood at 1.92. Next, EEEDLRRRLKYFFMSRCDKFRAKG [P16R]: 2.26; EEEDLRRRLKYFFMSACDKFRAKG [P16A]: 2.12; EEEDLRRRLKYFFMSCCDKFRAKG [P16C]: 1.84. As for EEEDLRRRLKYFFMSKCDKFRAKG [P16K], the figure is 2.61.

For EEEDLRRRLKYFFMSECDKFRAKG [P16E], the protein stability index came to 1.87. Take EEEDLRRRLKYFFMSWCDKFRAKG [P16W]: the protein stability index is 2.19.

On to EEEDLRRRLKYFFMSQCDKFRAKG [P16Q], for which the protein stability index is 1.84. Next, EEEDLRRRLKYFFMSVCDKFRAKG [P16V]: 2.12; EEEDLRRRLKYFFMSSCDKFRAKG [P16S]: 2.81; EEEDLRRRLKYFFMSTCDKFRAKG [P16T]: 2.68. In the case of EEEDLRRRLKYFFMSLCDKFRAKG [P16L], the protein stability index was 1.7.

EEEDLRRRLKYFFMSPCMKFRAKG [D18M]: the protein stability index was found to be 2.35. Turning to EEEDLRRRLKYFFMSPCNKFRAKG [D18N], the protein stability index amounted to 1.77. Take EEEDLRRRLKYFFMSPCLKFRAKG [D18L]: the protein stability index was 2.32. As for EEEDLRRRLKYFFMSPCPKFRAKG [D18P], the figure is 1.73; as for EEEDLRRRLKYFFMSPCGKFRAKG [D18G], 2.06. As for EEEDLRRRLKYFFMSPCCKFRAKG [D18C], the figure is 1.83; as for EEEDLRRRLKYFFMSPCEKFRAKG [D18E], 1.94. Regarding EEEDLRRRLKYFFMSPCHKFRAKG [D18H], the protein stability index is 2.05.

Consider EEEDLRRRLKYFFMSPCIKFRAKG [D18I], for which the protein stability index came out at 2.49.

Regarding EEEDLRRRLKYFFMSPCQKFRAKG [D18Q], the protein stability index came out at 2.2.

Regarding EEEDLRRRLKYFFMSPCKKFRAKG [D18K], the protein stability index came to 1.94.

Take EEEDLRRRLKYFFMSPCAKFRAKG [D18A]: the protein stability index is 1.91. As for EEEDLRRRLKYFDMSPCDKFRAKG [F13D], the protein stability index came out at 3.22. As for EEEDLRRRLKYFMMSPCDKFRAKG [F13M], the figure is 2.67. As for EEEDLRRRLKYFKMSPCDKFRAKG [F13K], the figure is 3.23. Next, EEEDLRRRLKYFPMSPCDKFRAKG [F13P]: 3.97.

In the case of EEEDLRRRLKYFCMSPCDKFRAKG [F13C], the protein stability index is 3.8. Next, EEEDLRRRLKYFLMSPCDKFRAKG [F13L]: 3.2; EEEDLRRRLKYFYMSPCDKFRAKG [F13Y]: 3.81; EEEDLRRRLKYFQMSPCDKFRAKG [F13Q]: 3.65. For EEEDLRRRLKYFNMSPCDKFRAKG [F13N], the protein stability index was 3.77.

Consider EEEDLRRRLKYFTMSPCDKFRAKG [F13T], for which the protein stability index worked out at 3.61. Next, EEEDLRRRLKYFWMSPCDKFRAKG [F13W]: 3; EEEDLRRRLKYFRMSPCDKFRAKG [F13R]: 3.54; EEEDLRRRLKYFGMSPCDKFRAKG [F13G]: 3.78. Next, EEEDLRRRLKYFIMSPCDKFRAKG [F13I]: 3.15; EEEDLRRRLKYFHMSPCDKFRAKG [F13H]: 3.75; EEEDLRRRLKYFEMSPCDKFRAKG [F13E]: 3.74.

On to EEEDLRRRLKYFAMSPCDKFRAKG [F13A], for which the protein stability index is 3.88. With EEEDLRRRLKYFSMSPCDKFRAKG [F13S], the protein stability index came out at 3.37.

In the case of EEEDLRRRLKYFVMSPCDKFRAKG [F13V], the protein stability index stood at 3.45. Take EEEDLRRRLRYFFMSPCDKFRAKG [K10R]: the protein stability index is 2.33. As for EEEDLRRRLLYFFMSPCDKFRAKG [K10L], the figure is 2.97; as for EEEDLRRRLTYFFMSPCDKFRAKG [K10T], 2.15.

EEEDLRRRLAYFFMSPCDKFRAKG [K10A]: the protein stability index came to 2.15.

Turning to EEEDLRRRLYYFFMSPCDKFRAKG [K10Y], the protein stability index turned out to be 1.67. As for EEEDLRRRLNYFFMSPCDKFRAKG [K10N], the figure is 3.21; as for EEEDLRRRLDYFFMSPCDKFRAKG [K10D], 3.41; as for EEEDLRRRLGYFFMSPCDKFRAKG [K10G], 2.58.

In the case of EEEDLRRRLHYFFMSPCDKFRAKG [K10H], the protein stability index is 2.11.

Turning to EEEDLRRRLQYFFMSPCDKFRAKG [K10Q], the protein stability index turned out to be 2.26. As for EEEDLRRRLFYFFMSPCDKFRAKG [K10F], the figure is 1.82; as for EEEDLRRRLPYFFMSPCDKFRAKG [K10P], 2.79. With EEEDLRRRLMYFFMSPCDKFRAKG [K10M], the protein stability index was 1.93. Next, EEEDLRRRLSYFFMSPCDKFRAKG [K10S]: 2.3; EEEDLRRRLCYFFMSPCDKFRAKG [K10C]: 2.15.

With EEEDLRRRLIYFFMSPCDKFRAKG [K10I], the protein stability index is 1.62. As to EEEDLRRRLEYFFMSPCDKFRAKG [K10E], the protein stability index was 2.67. For EEEDLRRRLWYFFMSPCDKFRAKG [K10W], the protein stability index turned out to be 2.1.

With EEEDLRRRLVYFFMSPCDKFRAKG [K10V], the protein stability index stood at 2.32. As for EEEDLRRRLKYFFGSPCDKFRAKG [M14G], the figure is 3.56; as for EEEDLRRRLKYFFVSPCDKFRAKG [M14V], 2.66. Next, EEEDLRRRLKYFFNSPCDKFRAKG [M14N]: 3.3; EEEDLRRRLKYFFLSPCDKFRAKG [M14L]: 2.14. Turning to EEEDLRRRLKYFFWSPCDKFRAKG [M14W], the protein stability index came out at 3.05.

Consider EEEDLRRRLKYFFDSPCDKFRAKG [M14D], for which the protein stability index stood at 3.23. Next, EEEDLRRRLKYFFCSPCDKFRAKG [M14C]: 2.24; EEEDLRRRLKYFFFSPCDKFRAKG [M14F]: 2.83; EEEDLRRRLKYFFPSPCDKFRAKG [M14P]: 3.16. As for EEEDLRRRLKYFFYSPCDKFRAKG [M14Y], the figure is 2.23; as for EEEDLRRRLKYFFRSPCDKFRAKG [M14R], 2.73; as for EEEDLRRRLKYFFTSPCDKFRAKG [M14T], 2.79.

Turning to EEEDLRRRLKYFFASPCDKFRAKG [M14A], the protein stability index was determined as 3.27. As for EEEDLRRRLKYFFKSPCDKFRAKG [M14K], the figure is 3.14; as for EEEDLRRRLKYFFSSPCDKFRAKG [M14S], 2.96; as for EEEDLRRRLKYFFHSPCDKFRAKG [M14H], 2.59. For the variant EEEDLRRRLKYFFISPCDKFRAKG [M14I], the protein stability index turned out to be 2.87. Next, EEEDLRRRLKYFFESPCDKFRAKG [M14E]: 2.65; EEEDLRRRLKYFFQSPCDKFRAKG [M14Q]: 3.04.

Turning to EEEDLRRQLKYFFMSPCDKFRAKG [R8Q], the protein stability index worked out at 3. In the case of EEEDLRRSLKYFFMSPCDKFRAKG [R8S], the protein stability index was 2.67. Turning to EEEDLRRTLKYFFMSPCDKFRAKG [R8T], the protein stability index is 2.42. As for EEEDLRRVLKYFFMSPCDKFRAKG [R8V], the figure is 2.62; as for EEEDLRRWLKYFFMSPCDKFRAKG [R8W], 2.42. In the case of EEEDLRRYLKYFFMSPCDKFRAKG [R8Y], the protein stability index was determined as 1.64.
